In the supplement of paper PMC11246515:
± gives the standard deviation of the averaged measurements.

Test: total protein half-life in vivo (active degradation + dilution); higher = more stable protein
[1] = E. coli NCM3722 delta-clpP delta-lon delta-hslV, growth: N-lim chemostat, doubling time 6 h
[2] = E. coli NCM3722 delta-clpP, growth: N-lim chemostat, doubling time 6 h
[3] = E. coli NCM3722 delta-smpB, growth: N-lim chemostat, doubling time 6 h
[4] = wild type E. coli NCM3722, growth: C-lim chemostat, doubling time 3 h
[5] = wild type E. coli NCM3722, growth: C-lim chemostat, doubling time 6 h
[6] = wild type E. coli NCM3722, growth: C-lim chemostat, doubling time 12 h
[7] = E. coli NCM3722 delta-hslV, growth: N-lim chemostat, doubling time 6 h
[8] = E. coli NCM3722 delta-lon, growth: N-lim chemostat, doubling time 6 h
[9] = wild type E. coli NCM3722, growth: N-lim chemostat, doubling time 6 h
[10] = wild type E. coli NCM3722, growth: N-lim chemostat, doubling time 12 h
[11] = wild type E. coli NCM3722, growth: P-lim chemostat, doubling time 6 h
[12] = wild type E. coli NCM3722, growth: P-lim chemostat, doubling time 12 h

Sequence | total protein half-life in vivo [1] | total protein half-life in vivo [2] | total protein half-life in vivo [3] | total protein half-life in vivo [4] | total protein half-life in vivo [5] | total protein half-life in vivo [6] | total protein half-life in vivo [7] | total protein half-life in vivo [8] | total protein half-life in vivo [9] | total protein half-life in vivo [10] | total protein half-life in vivo [11] | total protein half-life in vivo [12]
MAFSQAVSGLNAAATNLDVIGNNIANSATYGFKSGTASFADMFAGSKVGLGVKVAGITQDFTDGTTTNTGRGLDVAISQNGFFRLVDSNGSVFYSRNGQFKLDENRNLVNMQGLQLTGYPATGTPPTIQQGANPTNISIPNTLMAAKTTTTASMQINLNSSDPLPTVTPFSASNADSYNKKGSVTVFDSQGNAHDMSVYFVKTGDNNWQVYTQDSSDPNSIAKTATTLEFNANGTLVDGAMANNIATGAINGAEPATFSLSFLNSMQQNTGANNIVATTQNGYKPGDLVSYQINDDGTVVGNYSNEQTQLLGQIVLANFANNEGLASEGDNVWSATQSSGVALLGTAGTGNFGTLTNGALEASNVDLSKELVNMIVAQRNYQSNAQTIKTQDQILNTLVNLR | 3.24 ± 0.9 h | 7.78 h | > 8 h | 1.2 ± 0.066 h | 2.23 ± 0.38 h | 3.51 ± 0.74 h |  |  |  |  |  | 
MSTITLLCIALAGVIMLLLLVIKAKVQPFVALLLVSLLVALAAGIPAGEVGKVMIAGMGGVLGSVTIIIGLGAMLGRMIEHSGGAESLANYFSRKLGDKRTIAALTLAAFFLGIPVFFDVGFIILAPIIYGFAKVAKISPLKFGLPVAGIMLTVHVAVPPHPGPVAAAGLLHADIGWLTIIGIAISIPVGVVGYFAAKIINKRQYAMSVEVLEQMQLAPASEEGATKLSDKINPPGVALVTSLIVIPIAIIMAGTVSATLMPPSHPLLGTLQLIGSPMVALMIALVLAFWLLALRRGWSLQHTSDIMGSALPTAAVVILVTGAGGVFGKVLVESGVGKALANMLQMIDLPLLPAAFIISLALRASQGSATVAILTTGGLLSEAVMGLNPIQCVLVTLAACFGGLGASHINDSGFWIVTKYLGLSVADGLKTWTVLTTILGFTGFLITWCVWAVI |  |  |  |  |  | 15.2 h |  |  |  |  |  | 
MSANAETQTPQQPVKKSGKRKRLLLLLTLLFIIIAVAIGIYWFLVLRHFEETDDAYVAGNQIQIMSQVSGSVTKVWADNTDFVKEGDVLVTLDPTDARQAFEKAKTALASSVRQTHQLMINSKQLQANIEVQKIALAKAQSDYNRRVPLGNANLIGREELQHARDAVTSAQAQLDVAIQQYNANQAMILGTKLEDQPAVQQAATEVRNAWLALERTRIISPMTGYVSRRAVQPGAQISPTTPLMAVVPATNMWVDANFKETQIANMRIGQPVTITTDIYGDDVKYTGKVVGLDMGTGSAFSLLPAQNATGNWIKVVQRLPVRIELDQKQLEQYPLRIGLSTLVSVNTTNRDGQVLANKVRSTPVAVSTAREISLAPVNKLIDDIVKANAG | 6.17 ± 0.42 h | 6.38 ± 0.53 h | 6.1 ± 0.26 h | 2.99 ± 0.1 h | 6.37 ± 0.2 h | 13.5 ± 1.8 h | 6.57 ± 0.12 h | 6.37 ± 0.58 h | 6.17 ± 0.1 h | 12 ± 0.35 h | 6.47 ± 0.29 h | 13.6 ± 2.7 h
MERYESLFAQLKERKEGAFVPFVTLGDPGIEQSLKIIDTLIEAGADALELGIPFSDPLADGPTIQNATLRAFAAGVTPAQCFEMLALIRQKHPTIPIGLLMYANLVFNKGIDEFYAQCEKVGVDSVLVADVPVEESAPFRQAALRHNVAPIFICPPNADDDLLRQIASYGRGYTYLLSRAGVTGAENRAALPLNHLVAKLKEYNAAPPLQGFGISAPDQVKAAIDAGAAGAISGSAIVKIIEQHINEPEKMLAALKVFVQPMKAATRS [P0A877] | 3.93 ± 0.57 h | 3.89 ± 0.84 h | 3.69 ± 0.17 h | 3.084 ± 0.021 h | 5.81 ± 0.23 h | 8.972 ± 0.077 h | 3.44 ± 0.066 h | 4.07 ± 0.48 h | 3.61 ± 0.21 h | 5.06 ± 0.87 h | 5.39 ± 0.16 h | 12 ± 0.5 h
MRILHTSDWHLGQNFYSKSREAEHQAFLDWLLETAQTHQVDAIIVAGDVFDTGSPPSYARTLYNRFVVNLQQTGCHLVVLAGNHDSVATLNESRDIMAFLNTTVVASAGHAPQILPRRDGTPGAVLCPIPFLRPRDIITSQAGLNGIEKQQHLLAAITDYYQQHYADACKLRGDQPLPIIATGHLTTVGASKSDAVRDIYIGTLDAFPAQNFPPADYIALGHIHRAQIIGGMEHVRYCGSPIPLSFDECGKSKYVHLVTFSNGKLESVENLNVPVTQPMAVLKGDLASITAQLEQWRDVSQEPPVWLDIEITTDEYLHDIQRKIQALTESLPVEVLLVRRSREQRERVLASQQRETLSELSVEEVFNRRLALEELDESQQQRLQHLFTTTLHTLAGEHEA [P0AG76] | 5.77 ± 0.37 h | 4.79 ± 1.6 h | 4.5 ± 0.46 h | 2.6 ± 0.049 h | 5.4 ± 0.27 h | 9.11 ± 1.4 h | 4.67 ± 0.67 h | 4.54 ± 0.071 h | 4.54 ± 0.17 h | 7.66 ± 0.56 h | 5.46 ± 0.31 h | 7.9 ± 0.1 h
MNLMTTITGVVLAGGKARRMGGVDKGLLELNGKPLWQHVADALMTQLSHVVVNANRHQEIYQASGLKVIEDSLADYPGPLAGMLSVMQQEAGEWFLFCPCDTPYIPPDLAARLNHQRKDAPVVWVHDGERDHPTIALVNRAIEPLLLEYLQAGERRVMVFMRLAGGHAVDFSDHKDAFVNVNTPEELARWQEKR | 4.29 ± 0.5 h | 3.95 ± 0.19 h | 3.59 ± 0.12 h | 2.95 ± 0.26 h | 5.9 ± 0.46 h | 9.71 ± 3.2 h | 3.728 ± 0.033 h | 4.1 ± 0.19 h | 4.46 h | 6.67 ± 1.5 h | 5.046 ± 0.009 h | 10.9 ± 0.43 h
MRVVILGSGVVGVASAWYLNQAGHEVTVIDREPGAALETSAANAGQISPGYAAPWAAPGVPLKAIKWMFQRHAPLAVRLDGTQFQLKWMWQMLRNCDTSHYMENKGRMVRLAEYSRDCLKALRAETNIQYEGRQGGTLQLFRTEQQYENATRDIAVLEDAGVPYQLLESSRLAEVEPALAEVAHKLTGGLQLPNDETGDCQLFTQNLARMAEQAGVKFRFNTPVDQLLCDGEQIYGVKCGDEVIKADAYVMAFGSYSTAMLKGIVDIPVYPLKGYSLTIPIAQEDGAPVSTILDETYKIAITRFDNRIRVGGMAEIVGFNTELLQPRRETLEMVVRDLYPRGGHVEQATFWTGLRPMTPDGTPVVGRTRFKNLWLNTGHGTLGWTMACGSGQLLSDLLSGRTPAIPYEDLSVARYSRGFTPSRPGHLHGAHS [P0A6J5] | 2.86 ± 0.088 h | 1.88 ± 0.14 h | 1.95 ± 0.12 h | 1.01 ± 0.16 h | 1.65 ± 0.11 h | 2.68 ± 0.58 h | 2.16 ± 0.24 h | 2.06 h | 2.04 ± 0.17 h | 3.35 ± 0.27 h | 2.27 ± 0.23 h | 4.77 ± 0.97 h
MYDFNLVLLLLQQMCVFLVIAWLMSKTPLFIPLMQVTVRLPHKFLCYIVFSIFCIMGTWFGLHIDDSIANTRAIGAVMGGLLGGPVVGGLVGLTGGLHRYSMGGMTALSCMISTIVEGLLGGLVHSILIRRGRTDKVFNPITAGAVTFVAEMVQMLIILAIARPYEDAVRLVSNIAAPMMVTNTVGAALFMRILLDKRAMFEKYTSAFSATALKVAASTEGILRQGFNEVNSMKVAQVLYQELDIGAVAITDREKLLAFTGIGDDHHLPGKPISSTYTLKAIETGEVVYADGNEVPYRCSLHPQCKLGSTLVIPLRGENQRVMGTIKLYEAKNRLFSSINRTLGEGIAQLLSAQILAGQYERQKAMLTQSEIKLLHAQVNPHFLFNALNTIKAVIRRDSEQASQLVQYLSTFFRKNLKRPSEFVTLADEIEHVNAYLQIEKARFQSRLQVNIAIPQELSQQQLPAFTLQPIVENAIKHGTSQLLDTGRVAISARREGQHLMLEIEDNAGLYQPVTNASGLGMNLVDKRLRERFGDDYGISVACEPDSYTRITLRLPWRDEA [P0AD14] |  |  |  | 2.82 ± 0.28 h | 5.37 ± 0.45 h | 10.9 ± 0.79 h |  |  |  |  | 6.05 ± 0.33 h | 11.1 ± 1.1 h
MAIKLIAIDMDGTLLLPDHTISPAVKNAIAAARARGVNVVLTTGRPYAGVHNYLKELHMEQPGDYCITYNGALVQKAADGSTVAQTALSYDDYRFLEKLSREVGSHFHALDRTTLYTANRDISYYTVHESFVATIPLVFCEAEKMDPNTQFLKVMMIDEPAILDQAIARIPQEVKEKYTVLKSAPYFLEILDKRVNKGTGVKSLADVLGIKPEEIMAIGDQENDIAMIEYAGVGVAMDNAIPSVKEVANFVTKSNLEDGVAFAIEKYVLN [P0A8Y5] | 4 ± 0.43 h | 3.61 ± 0.23 h | 3.408 ± 0.021 h | 3.08 ± 0.22 h | 5.71 ± 0.32 h | 9.92 ± 0.27 h | 3.55 ± 0.38 h | 3.69 ± 0.1 h | 3.52 ± 0.2 h | 5.28 ± 0.29 h | 5.06 ± 0.13 h | 11.4 ± 0.92 h
MNPQLLRVTNRIIERSRETRSAYLARIEQAKTSTVHRSQLACGNLAHGFAACQPEDKASLKSMLRNNIAIITSYNDMLSAHQPYEHYPEIIRKALHEANAVGQVAGGVPAMCDGVTQGQDGMELSLLSREVIAMSAAVGLSHNMFDGALFLGVCDKIVPGLTMAALSFGHLPAVFVPSGPMASGLPNKEKVRIRQLYAEGKVDRMALLESEAASYHAPGTCTFYGTANTNQMVVEFMGMQLPGSSFVHPDSPLRDALTAAAARQVTRMTGNGNEWMPIGKMIDEKVVVNGIVALLATGGSTNHTMHLVAMARAAGIQINWDDFSDLSDVVPLMARLYPNGPADINHFQAAGGVPVLVRELLKAGLLHEDVNTVAGFGLSRYTLEPWLNNGELDWREGAEKSLDSNVIASFEQPFSHHGGTKVLSGNLGRAVMKTSAVPVENQVIEAPAVVFESQHDVMPAFEAGLLDRDCVVVVRHQGPKANGMPELHKLMPPLGVLLDRCFKIALVTDGRLSGASGKVPSAIHVTPEAYDGGLLAKVRDGDIIRVNGQTGELTLLVDEAELAAREPHIPDLSASRVGTGRELFSALREKLSGAEQGATCITF [P0ADF6] | 3.58 ± 0.62 h | 3.24 h | 2.97 ± 0.12 h | 3.07 ± 0.33 h |  | 8.61 h | 3.51 ± 0.99 h | 3.46 h | 2.98 ± 0.2 h | 4.531 ± 0.012 h | 5.33 ± 0.3 h | 9.86 ± 0.35 h
MAYQSQDIIRRSATNGLTPAPQARDFQEEVAKLIDVTTCIGCKACQVACSEWNDIRDTVGNNIGVYDNPNDLSAKSWTVMRFSEVEQNDKLEWLIRKDGCMHCSDPGCLKACPAEGAIIQYANGIVDFQSEQCIGCGYCIAGCPFDIPRLNPEDNRVYKCTLCVDRVVVGQEPACVKTCPTGAIHFGTKESMKTLASERVAELKTRGYDNAGLYDPAGVGGTHVMYVLHHADKPNLYHGLPENPEISETVKFWKGIWKPLAAVGFAATFAASIFHYVGVGPNRADEEENNLHEEKDEERK [P0AAJ5] | 4.44 ± 0.47 h |  | 3.15 h |  | 6.15 h | 7.88 h | 3.37 h |  | 5.98 ± 0.62 h |  | 5.29 h | 
MLHKKTLLFAALSAALWGGATQAADAAVVASLKPVGFIASAIADGVTETEVLLPDGASEHDYSLRPSDVKRLQNADLVVWVGPEMEAFMQKPVSKLPGAKQVTIAQLEDVKPLLMKSIHGDDDDHDHAEKSDEDHHHGDFNMHLWLSPEIARATAVAIHGKLVELMPQSRAKLDANLKDFEAQLASTETQVGNELAPLKGKGYFVFHDAYGYFEKQFGLTPLGHFTVNPEIQPGAQRLHEIRTQLVEQKATCVFAEPQFRPAVVESVARGTSVRMGTLDPLGTNIKLGKTSYSEFLSQLANQYASCLKGD | 3.68 ± 0.41 h | 4.85 ± 0.4 h |  | 2.86 ± 0.12 h | 5.54 ± 0.29 h | 9.55 ± 1.5 h | 5.99 ± 0.29 h | 7.17 ± 0.96 h |  | 13.6 ± 1.4 h | 5.24 ± 0.2 h | 11.4 ± 2.3 h
